Test results published in patent US20210107943A1 (UNIVERSITY OF FLORIDA RESEARCH FOUNDATION, published 2021).

B1: mCATCH(+) peptide, Ac-QQKPKPKPKQQ-Am (peptide)
peptide: Ac-QQKPKPKPKQQ-NH2
notes: Mutant with proline in place of the phenylalanine residues; also called mutant of CATCH(+)

Columns and labels:
[1] = biological target: T1, mCATCH(-) peptide, Ac-EQEPEPEPEQE-Am; test: ThT fluorimetry, kinetic
T1 construct: Mutant with proline in place of the phenylalanine residues; also called mutant of CATCH(-)
T1 peptide: Ac-EQEPEPEPEQE-NH2

[2] = biological target: the molecule itself; test: TEM and circular dichroism of the peptide alone (self-assembly)
[3] = biological target: T1, mCATCH(-) peptide, Ac-EQEPEPEPEQE-Am; test: ThT fluorimetry, equimolar mixture
Protocol: (§1) Thioflavin T (ThT) Assay. A ThT stock solution containing 0.8 mg/mL of thioflavin T (Acros) in 1× phosphate-buffered saline (PBS) (137 mM NaCl, 2.7 mM, KCl, 10 mM Na₂HPO₄ and 1.8 mM KH₂PO₄, pH 7.4) was filtered through a 0.22 μm syringe filter (Millex), and further diluted 1:10 with 1× PBS to create a working solution. Peptide samples were mixed with the ThT working solution at a 1:10 (v/v) ratio, added to a black 96-well plate (Corning), and analyzed with a Molecular Devices SpectraMax M3 spectrophotometer (excitation 450, emission 482 nm). All samples were run in triplicate, with the mean and standard deviation of these samples reported.
(§2) Nanofiber preparation. Stock solutions of CATCH(−) and CATCH(+) were prepared by dissolving lyophilized peptides in 1× PBS to a final concentration of 500 μM. Peptide concentration was confirmed using Phe absorbance (λ=260 nm). CATCH peptides were then mixed at a 1:1 (v/v) ratio and incubated overnight for formation of nanofibers, unless stated otherwise.

[4] = biological target: the molecule itself; test: ThT fluorescence microscopy and the data taken together (self-assembly)
Protocol: For samples containing only CATCH peptides, ThT was mixed with samples at a 1:1 (v/v) ratio, 5 μL of each sample was placed onto a glass microscope slide, samples were covered with a cover slip, and samples were viewed using a GFP filter set. For samples containing CATCH peptides and CATCH(−)GFP, 0.75 μM CATCH(−)GFP was mixed with 200 μM CATCH(+) and 187.5 μM CATCH(−), unless otherwise specified. 5 μL of each sample was placed onto a glass microscope slide, samples were covered with a cover slip, and samples were viewed using a GFP filter set. For all samples, images were collected using an exposure time of 4 s.

[5] = biological target: B1; test: ThT fluorimetry, equimolar mixture
Protocol: as §1, §2

B1
binding result [1]: no binding

B2: CATCH(+) peptide, Ac-QQKFKFKFKQQ-Am (peptide)
peptide: Ac-QQKFKFKFKQQ-NH2
notes: also called CATCH (4+); positive peptide segment
binding result [2]: no binding
binding result [3]: no binding

B3: CATCH(-) peptide, Ac-EQEFEFEFEQE-Am (peptide)
peptide: Ac-EQEFEFEFEQE-NH2
notes: also called CATCH (6-); negative peptide segment
binding result [4]: no binding
binding result [5]: no binding
